The chains are these.
B1: wild-type IFN-λ3 (ligand)
chain: PVARLRGALPDARGCHIAQFKSLSPQELQAFKRAKDALEESLLLKDCKCRSRLFPRTWDLRQLQVRERPVALEAELALTLKVLEATADTDPALGDVLDQPLHTLHHILSQLRACIQPQPTAGPRTRGRLHHWLHRLQEAPKKESPGCLEASVTFNLFRLLTRDLNCVASGDLCV
notes: For SPR it was expressed in Hi5 insect cells; also called IL-28B; IFN-λ3 wt
B2: IFN-λ3 H11 (ligand)
chain: B1 chain with Q26R, E84D, H131R, T161A, V174E
notes: also called engineered IFN-λ3 H11
B3: IL-10Rβ (monomer) (receptor, human, UniProt Q08334 20-220, looked up)
chain: MVPPPENVRMNSVNFKNILQWESPAFAKGNLTFTAQYLSYRIFQDKCMNTTLTECDFSSLSKYGDHTLRVRAEFADEHSDWVNITFCPVDDTIIGPPGMQVEVLADSLHMRFLAPKIENEYETWTMKNVYNSWTYNVQYWKNGTDEKFQITPQYDFEVLRNLEPWTTYCVQVRGFLPDRNKAGEWSEPVCEQTTHDETVPS
notes: Soluble receptor expressed in Hi5 insect cells; also called IL-10 Receptor Beta; IL-10R2
B4: Synthekine 2 (designed binder)
chain: ARGCHIAQFKSLSPAELQAFKRAKDALEESLLLKDCKCRSRLFPRTWDLRQLQVRERPVALEAELALTLKVLEATADTDPALGDVLDAPLATLHHILSQLRACIQPQPTAGPRTRGRLHRWLHRLQEAPKKESPGCLEASVTFNLFRLLARDLNCVASGDLCEGSGSGLGCDLPQNHGLLSANTLVLLHQMRRISPFLCAKDARDFRFPQEMVKGSQLQKAHVMSVLHEMLQQIFSLFHTERSSAAWNMTLLDQLHTGLHQQLQHLETCLLQVVGEGESAGAISSPALTLRRYFQGIRVYLKEKKYSDCAWEVVRMEIMASLFLSTNMQERLRSKDRDLGSSAAAHHHHHH

The target in experiment [1] is T1, IFN-λR1 (human, UniProt Q8IU57 21-228, limits assumed).
T1 construct: Soluble receptor expressed in Hi5 insect cells; It was captured on a Biotin CAP chip for SPR and used as streptavidin tetramers or soluble protein in the yeast assays; For crystallography it was expressed in HEK293 GnTI- cells and deglycosylated with EndoF and EndoH; also called IL-28RA; IFNλ Receptor 1
T1 sequence (looked up): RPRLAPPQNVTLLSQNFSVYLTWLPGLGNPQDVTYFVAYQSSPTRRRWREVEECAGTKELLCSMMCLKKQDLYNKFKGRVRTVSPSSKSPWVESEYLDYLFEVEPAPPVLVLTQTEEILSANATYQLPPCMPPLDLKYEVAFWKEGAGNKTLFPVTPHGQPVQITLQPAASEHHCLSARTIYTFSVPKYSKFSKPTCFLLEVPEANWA
The experiment in a line: yeast surface display titration with IFN-λR1, flow cytometry (FIG. 7B legend gives KD=400 nM). For orientation: In flow cytometry, cells or beads pass a laser one at a time.

The target of experiment [2] is T1, IFN-λR1. The experiment in a line: SPR, equilibrium fit; wild-type IFN-λ3 binding IFN-λR1. The procedure:
(§1) KD values were determined by fitting to a first order equilibrium binding model.
(§2) Surface plasmon resonance. GE Biacore T100 was used to measure the KD by either kinetic (type I IFNs) or equilibrium (type III IFNs) methods. Approximately 100 RU of each of the receptors of were captured on a Biotin CAP-chip (GE) including a reference channel of an unrelated cytokine receptor (IL-2Rβ).
(In SPR one partner is held on a chip, and binding of the other changes the refractive index at the surface.)

For experiment [3], the target named is B3. The experiment in a line: flow cytometry of yeast displaying IFN-λ3, no IFN-λR1 present. The procedure:
as §1
(§3) We used yeast surface display as a platform for engineering a higher affinity IFN-λ.

Experiment [4] addresses T2, IL-10Rβ streptavidin tetramers (human, UniProt Q08334 20-220; P22629 37-163).
T2 construct: Same receptor as m4, multimerised on streptavidin for staining of yeast; also called avidity-enhanced tetrameric form of IL-10Rβ; IL-10Rβ tetramer
The experiment is described as above. As to the method: as §1, §3

Experiment [5] concerns the target B3. Description: yeast-surface titration with IL-10Rβ (affinity maturation was done with soluble IFN-λR1 bound to the displayed cytokine); on-yeast titration, H11 displayed on yeast; presence of IFN-λR1 not stated for the titration.
Experiment [6] has as its target T1, IFN-λR1. Description: SPR, equilibrium fit; H11 (carries Thr150Ala) binding IFN-λR1. As to the method: as §1, §2
In experiment [7] the target is T1, IFN-λR1. Description: SPR, equilibrium fit. As to the method:
as §1, §2

Experiment [8] addresses T3, heterodimeric receptor composed of IL-10Rβ and IFN-λR1 (on cells) (human, UniProt Q8IU57 21-520; Q08334 20-325).
T3 sequence (looked up) 1: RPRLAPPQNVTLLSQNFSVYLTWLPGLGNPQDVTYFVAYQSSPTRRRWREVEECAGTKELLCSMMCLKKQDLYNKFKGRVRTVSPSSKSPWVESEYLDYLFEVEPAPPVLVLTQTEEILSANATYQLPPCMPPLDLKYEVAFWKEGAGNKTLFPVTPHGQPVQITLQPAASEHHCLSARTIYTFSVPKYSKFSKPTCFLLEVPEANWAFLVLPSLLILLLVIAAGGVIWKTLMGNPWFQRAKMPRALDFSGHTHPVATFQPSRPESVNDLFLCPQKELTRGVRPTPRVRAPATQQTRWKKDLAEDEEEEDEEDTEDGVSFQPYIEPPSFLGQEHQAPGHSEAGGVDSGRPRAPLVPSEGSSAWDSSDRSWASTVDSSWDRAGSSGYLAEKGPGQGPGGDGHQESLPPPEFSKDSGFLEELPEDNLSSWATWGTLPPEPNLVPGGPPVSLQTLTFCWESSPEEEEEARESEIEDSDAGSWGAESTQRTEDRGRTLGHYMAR
T3 sequence (looked up) 2: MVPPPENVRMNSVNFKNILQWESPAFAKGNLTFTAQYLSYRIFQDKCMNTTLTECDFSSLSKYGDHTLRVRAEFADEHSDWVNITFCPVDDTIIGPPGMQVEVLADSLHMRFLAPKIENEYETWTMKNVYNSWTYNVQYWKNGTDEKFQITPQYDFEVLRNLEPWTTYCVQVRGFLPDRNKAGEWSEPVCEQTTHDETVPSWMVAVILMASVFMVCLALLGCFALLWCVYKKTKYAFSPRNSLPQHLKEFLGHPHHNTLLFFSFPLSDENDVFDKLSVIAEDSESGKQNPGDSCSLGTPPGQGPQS
The experiment in a line: cell-based or functional assay.

Experiment [9] addresses T4, wild-type IFN-λ3/IFN-λR1 binary complex (human, UniProt Q8IU57 21-228, limits assumed).
T4 construct: Complex of m1 and m3; In SPR it was the immobilized binary complex; also called IFN-λ/IFN-λR1 binary complex; wild-type IFN-λR1/IFN-λ3
T4 sequence 1: B1 chain
T4 sequence 2: T1 sequence (looked up)
Description: surface plasmon resonance, equilibrium fit; binary complex on the sensor chip, IL-10Rβ as analyte up to 100 uM. As to the method: as §1, §2

The target in experiment [10] is T5, H11/IFN-λR1 binary complex (human, UniProt Q8IU57 21-228, limits assumed).
T5 construct: Complex of m2 and m3, immobilized for SPR; also called IFN-λ3 H11/IFN-λR1 binary complex; H11-containing binary complex
T5 sequence 1: B1 chain with Q26R, E84D, H131R, T161A, V174E
T5 sequence 2: T1 sequence (looked up)
The experiment in a line: SPR, equilibrium fit, immobilized binary complexes. The procedure: as §1, §2

Experiment [11] addresses T5, H11/IFN-λR1 binary complex. The experiment in a line: SPR, equilibrium fit, immobilized H11/IFN-λR1 binary complex; SPR; IL-10Rβ over the immobilized H11/IFN-λR1 binary complex. The procedure:
as §1, §2

Experiment [12] concerns the target T6, IFNλR1/IFNAR1 receptor dimer (on Hap1 cells) (UniProt Q8IU57 21-520; P17181 28-557, limits assumed).
T6 sequence (looked up) 1: T3 sequence (looked up) 1
T6 sequence (looked up) 2: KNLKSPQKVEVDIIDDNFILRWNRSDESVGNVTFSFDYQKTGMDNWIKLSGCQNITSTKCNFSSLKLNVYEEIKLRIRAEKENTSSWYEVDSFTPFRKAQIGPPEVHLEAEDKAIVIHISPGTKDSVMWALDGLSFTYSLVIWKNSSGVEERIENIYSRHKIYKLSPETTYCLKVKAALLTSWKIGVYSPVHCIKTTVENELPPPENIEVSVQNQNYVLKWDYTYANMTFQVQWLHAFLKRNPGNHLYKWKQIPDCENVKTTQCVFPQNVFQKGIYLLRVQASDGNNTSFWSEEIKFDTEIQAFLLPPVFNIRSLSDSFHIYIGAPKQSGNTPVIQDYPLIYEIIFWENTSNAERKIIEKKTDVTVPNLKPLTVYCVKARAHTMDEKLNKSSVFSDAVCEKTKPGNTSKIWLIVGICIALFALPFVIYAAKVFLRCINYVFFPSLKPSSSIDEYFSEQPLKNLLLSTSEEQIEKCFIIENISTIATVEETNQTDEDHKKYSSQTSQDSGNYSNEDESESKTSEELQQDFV
Description: cell-based or functional assay.

Substitutions are numbered along the chain they refer to.

T2 sequence (P22629 37-163, one chain of several): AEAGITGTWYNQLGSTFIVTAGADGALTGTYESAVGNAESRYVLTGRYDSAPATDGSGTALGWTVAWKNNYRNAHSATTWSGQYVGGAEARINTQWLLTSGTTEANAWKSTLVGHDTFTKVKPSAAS

For orientation: Kd means a measure of binding affinity in units of concentration. In the case of B1, the dissociation constant (Kd) in [1] is ~400 nM; in [2], 850 nM. The binding result in experiment [3] and in [4] was “no binding” each time.

Regarding B2, the Kd in [5] worked out at 200 nM. The equilibrium dissociation constant (Kd) in experiment [6] was determined as 150 nM. The “fold higher affinity against wild-type IFN-λ3” value in [7] is ~5 fold. In addition, in experiment [8], the “EC50 for phospho-Stat1 on Hap1 cells, fold improvement over wild-type IFN-λ3” value came to 100 fold and the “anti-viral potency on Huh7.5 cells infected with HCV, fold over wild-type IFN-λ3” value came to 12 fold.

In the case of B3, the Kd turned out to be 16000 nM in experiment [9] and 560 nM in experiment [11]. In addition, the “fold increase in IL-10Rβ affinity against the wild-type IFN-λ3/IFN-λR1 binary complex” value in [10] was determined as 30 fold.

As to B4, in experiment [12], the “Emax of phospho-STAT1 activation in Hap1 cells” value is 2 fold of the signal induced by type III IFNs.

(Values after patent publication US20190225665A1 (Stanford University, published 2019).)
